Measurements: the supplement of paper PMC11502859

Tested on: HEK293T
Assay: median enrichment of reporter reads in eGFP-reduced (low/intermediate) vs eGFP-high sorted cells (eGFP-extension fusion abundance) (ratio); higher = stronger loss of eGFP-fusion protein abundance (more destabilising extension)
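Also: lentiviral eGFP-IRES-mCherry reporter pool sorted by FACS 96 h post-transduction, gated on mCherry-high cells, Illumina read counts normalized per million, median across four biological replicates.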

REQVPAPHTPWRLPLRLHRLLPSIQPGVQVALFRGQMQAVGRTLPVSCVPHRERLWGDGWGMQSLRANKSSSEPASPLNV [KHK]
median enrichment: 2.84

KRL [CYP17A1]
median enrichment: 0.493

GISVSSLISGIFVDKIRRNSCNF [KATNAL1]
median enrichment: 2.39

WGHRSEMRGLECGWAPGAMGGCGAGEIKSELLLPGVPTSSSGQSVHSQPDR [BCL2]
median enrichment: 5.52

CLHW [RIMKLB]
median enrichment: 3.73

LGLLPLGPLTLSGWWTTKYNPVYNLKIYFTFVLLYLFIKG [SMAD4]
median enrichment: 5.85

RDASTGPSLFCPQP [HSPB8]
median enrichment: 0.453

KTKAKYIDFTVILKYNKNC [IL26]
median enrichment: 5.5

YGLQKNWPWGTKAFFSGLLPRP [KANK4]
median enrichment: 43.3

YPVLEGTGGIIFNDLLN [NXPE3]
median enrichment: 1.65

SSNLF [ADPRM]
median enrichment: 0.584

RQGPPLFWTP [CDHR2]
median enrichment: 1.05

YHCESITFSLSCSWTFCTENPGI [CREBBP]
median enrichment: 33.7

YLICTNMTQMFSKITGKPLTSICVSQLTEKKITCSSFIISHWNII [SENP7]
median enrichment: 3.44

TIRLWDTYQSEPDGFSHFHLYVCAAFLVRWRKEILEEKDFQELLLFLQNLPTAHWDDEDISLLLAEAYRLKFAFADAPNHYKK [TBC1D22A]
median enrichment: 4.42

SAAVTTFTCSSYTQTLQD [PIFO]
median enrichment: 1.55

VVVV [Val04]
median enrichment: 1.54

RLVIFFQRVMQSGYKRIFCLPYKGILPAAKFKQ [ARMC10]
median enrichment: 14.7

LAVGAHHLPDSQRENNLAKPIFDTGTFSSQFSLFSQKMI [C1orf105]
median enrichment: 12.7

RLMW [KRTAP13-3]
median enrichment: 3.36

LLL [Leu03]
median enrichment: 4.12

GGFFC [GBP7]
median enrichment: 0.518

LDPQVPLSKAENVHIPHWHFPKDKNCPRHILSV [VSX1]
median enrichment: 10

LPLARSLPSVHRSQFHRWRRCLR [PIPOX]
median enrichment: 10.5

RVYTRTMWYVARPGPGVRLGQPQLSLPLLLIQGVTRHLSLCYFWPQQEPVLGYFCPCSSQPNSGLAHPSPPPKAAEAVGGTGP [KCNJ11]
median enrichment: 4.66

WAPLPPTPYQLQSGGFHAQMALGVTSSFACGP [TPGS2]
median enrichment: 10.1

GSSTETGASSSSLGCGPSSRTRTSATSRASWRAWASARAASSLTASAASSAA [CCM2L]
median enrichment: 13.6

LLLPADLWIRSLLTGCVTLGPELPLSGPQRPYEGPLLQEHPHDIAFGGAPVACRIACGLCNLLRFKTDGHMCQWGSLSPGPKK [JAK3]
median enrichment: 5.04

QSCSIHIGLMD [ZCCHC10]
median enrichment: 0.408

LMSMSEGKENFGHQNPAPSELKELIYFMKLILLCVCSWC [GALNT15]
median enrichment: 12.1

RENQHP [CRYBG3]
median enrichment: 0.514

RRR [Arg03]
median enrichment: 0.663

YPHRGAGEGALDN [TMEM203]
median enrichment: 0.51

SYKSIVSDWTITSFNNVSNNVLY [FAM135A]
median enrichment: 30.6

RGPELARPRTPNTIFAIQPQAMGTAFLPRGPGRPQRLLQARTLVHYTPCLGAEILQQKDAIFFVSFFSIFFSKESIFQYVECV [NFYC]
median enrichment: 3.94

SIVLSTNLKSKGSSQSQPLCP [HIST1H3E]
median enrichment: 3.49

QSQEPSSLI [CNDP1]
median enrichment: 0.195

LVRGRGGAGTYLPESWRQNEALSIPGILLLLRADARPRASRDGVGEVLPTPLSSFPSSTKFPPALTE [SELENOM]
median enrichment: 4.2

YIMYYPDLVGKVLS [OPRM1]
median enrichment: 11.7

YIIHCIFYFYHILHIQQNLYVVIGII [ELMOD2]
median enrichment: 7.8

RSWPPLIYSTSLAPHLH [TNFRSF6B]
median enrichment: 8.26

MLSESRNFPAQA [Degron KLHDC3]
median enrichment: 4.77

LADP [AKAP4]
median enrichment: 0.662

RAETSALLTLRDTTRLHGEV [CORO2A]
median enrichment: 6.49

LKSP [SPATA5L1]
median enrichment: 0.47

SEERMYVCFTHRHQESSPMRFFFGGGRVYTAREQKYCVS [B4GALT5]
median enrichment: 9.99

WVEKKKKIKKQNKTHAPKK [NPIPB6]
median enrichment: 1.29

IIIII [Ile05]
median enrichment: 8.97

REEWGRLRSCGPRPRSLRGCLGDHLDLEAESAILPD [DHRS2]
median enrichment: 2.36

WNEPWSPLQSSPWDRDVAGQNSQLCVCVFRLIGNSKSLLPAPSKLDGQWSGIETVV [IL18RAP]
median enrichment: 5.03

WAVSLTCPGTPAPGLGRELTRTGCSQKAGPSLSPKPLLDLWRSCRLDREAVPLSSPSPSRASPWSFRSSFWGLFQVRRMEEGG [FOXN4]
median enrichment: 4.84

CLSLPSSWDYSHTPPHLDNFVFLVETGFHYVGQAGLKLLSSGDPSASASQNAGITSVSHYTWFFFPLFANSHGVFWHHFQHYF [RBP1]
median enrichment: 8.27

QKPYEYCEYGKAI [ZNF569]
median enrichment: 0.563

LTLQAGTVLLLSLQYIR [GTPBP2]
median enrichment: 9.07

WVVGSPADGSTWTWG [GABARAPL1]
median enrichment: 6.43

LSSQLPGPLP [COMMD9]
median enrichment: 0.399

LFIRSHGPITITLFSAFLLSSFLLSSPLLSSPLLPSPLCFFFFFFSFLWRSFALVAQAAVQWLNLGSLQPLPPRFK [GFRAL]
median enrichment: 7.15

SKQKHQHTSLDNSIWSTRLSYRFNFFCILRTL [HNRNPH3]
median enrichment: 6.48

GAAPQAGVEPDLGTKD [ZNF688]
median enrichment: 0.378

HHHH [His04]
median enrichment: 0.323

SSKEVILFCLLIIM [CHMP2B]
median enrichment: 6.82

YFLSVILP [GLB1L3]
median enrichment: 8.25

WNEKYCGHLNNGLVSYNEMFSRILK [UGP2]
median enrichment: 3.44

FLELKHPRMPLHVFHSPHLQTSLLFLTRPESKLPSLGNSGEGVSCTTYHTPSHPVSDFGMDSGKLGPSLNRVMYLNVCYFQPP [HSPA1L]
median enrichment: 6.57

APLGLEFATGRILQRQVVPGPLLHPFSRRPCQRLHPVVNLVWRQRLRGWTSIVGQGLTLQGFCSWLWTPENPLLPSPNTRFLT [FAM110A]
median enrichment: 5.18

LHSCTPISRAASLPSRGLQQCAWLAAAPPRAPWPRRCQPT [THSD4]
median enrichment: 7.14

WWWWWWW [Trp07]
median enrichment: 3.21

QEPHALKKTWEDMVAWNCHPRIPC [ZIM3]
median enrichment: 3.53

CSFPVPSHYSPKLGKGGGTYEKNSSGFITDWE [CNOT9]
median enrichment: 3.28

LAASRATSPHVGCPSWGREGQSVGWLGRGLALVGQPTPQPERA [RBM10]
median enrichment: 8.96

CGWNQGQPALRASVLLRGAVCGEGLSWQGKHLRVTLTLGPLLFLKRLLATGKKNDLATLEETSAKEDVLASLSYFCSVVDLHI [POLR1D]
median enrichment: 8.09

LPGPGFAPAPASGPPGSRCGGCGPRAGARRRRRRREGARPAGRNRSDSRQEPGTEPGTEQQVRPGPPRLGADSDALGGSRKGG [NKX6-2]
median enrichment: 6.82

SNIWLRCHWLRPTRSSFGWCRDHMHIIPGINTELFVNIAAPVF [LRRC6]
median enrichment: 12.4

LAEEVGMGALCLLC [FGA]
median enrichment: 11.4

SSSAC [BPTF]
median enrichment: 0.596

RSCAAQSQTPAPTTYFCYTQEHFRKLSQLIFCFSSMSILSVSHFEDFFSLLYLCFSFFGFYFVVLSVIFNVPKICTCSIKNVV [HOOK3]
median enrichment: 3.09

EKLVLCSG [ZDBF2]
median enrichment: 5.06

VVRASPYLLLSPCEEDPDLASFPRRGWGVPRVPVLEGPPSPSLITVLFSAPPSAARLQHQGEADAEPHRWESCLWKGAFCYNL [ZNF646]
median enrichment: 3.51

YRMETQKT [USH2A]
median enrichment: 0.809

WEAGWG [RPS6KB2]
median enrichment: 1.06

KKKKKQQVMELHILVTQWTIIGSHWKSGKNPWRLSFSDILPNALLSRIFVSFCLIFWGVFVVVGLFFVFFF [PPP1R12A]
median enrichment: 4.71

SML [CTHRC1]
median enrichment: 3.13

WSICLLNDTSLIYCTIS [RTCA]
median enrichment: 12.5

YEKHFGILSIMILCYRHRECCIQ [FASLG]
median enrichment: 3.75

YILLADHYCGLKDDHLV [WFDC9]
median enrichment: 7.3

LSGLCT [LCE1A]
median enrichment: 0.479

QKRMMMTFIIHKQWEVQQCLGADLRRRMIFLSLLTT [MROH9]
median enrichment: 20.2

RNKKFWVLSS [RGCC]
median enrichment: 1.68

WLFCKSVLGGPSLRV [OR9A2]
median enrichment: 4.81

KTTFPKENIRGFHC [CPVL]
median enrichment: 0.477

LAPLGLEFATGRILQRQVVPGPLLHPFSRRPCQRLHPVVNLVWRQRLRGWTSIVGQGLTLQGFCSWLWTPENPLLPSPNTRFL [FAM110A]
median enrichment: 6.38

CAPWWERL [HTT]
median enrichment: 1.22

LSHA [CACNG6]
median enrichment: 0.594

LLRPGALGARP [APOBR]
median enrichment: 9.86

YNIRKKATSMVINGRKAGELDSAVLLTGELWSSAPVYGPCRLVGWQMLA [DPPA4]
median enrichment: 10.4

LGSVPGWPVPITSYAHLPPPVFPPLDWWPLPWGRSPHVPAPGDRQRRQQAAFVAQQGALPSLLPSCFS [CST3]
median enrichment: 4.44

LGALPGTGSLTSQD [KIF19]
median enrichment: 0.309

VVVVVVV [Val07]
median enrichment: 7.67

RPSTVPGP [HYKK]
median enrichment: 0.522

RNQVASCPLLRGNPRPLASLPTYKALSQGIAGPRCLDPGCASPSLCSPWKGR [HSPBP1]
median enrichment: 7.21

YVEGYKC [FIBIN]
median enrichment: 1.05

YALPSWPLISAWVDHPRLQRVEGGSSSWESF [TMEM214]
median enrichment: 7.05

LELLPCPSFPPCTT [FEZF2]
median enrichment: 1.27

CHRGKRRKSC [CLDN1]
median enrichment: 0.437

SYKQRTSSILRKEML [MEOX2]
median enrichment: 5.43

SVS [PACSIN3]
median enrichment: 0.33

FFFFFFFFFF [Phe10]
median enrichment: 7.03

KKEKKQAILDENANGKIHITSYLL [PRDM4]
median enrichment: 6.45

LVLDKREAWKTPHASYHTSVLWLLSFEVLYCNLLICMECAYFLKGY [MED6]
median enrichment: 7.75

QQQQQQQQQQ [Gln10]
median enrichment: 0.317

QTFCSYRLKYLLPIRFFCDMCLPAVN [CCDC59]
median enrichment: 6.05

SREHENGSMTLPDTDAT [TP53]
median enrichment: 0.734

WGWRQLSSRSLGFAALAAVTRNCPGLGGELGGP [ACP7]
median enrichment: 8.55

SKWADE [PLPP5]
median enrichment: 0.25

WPLSPHPHLHPRTSLAIGAGPLQTLIPTPTEPLAQVPLVLPHSLAARCPGAHPCRAPKDGEVGGQELLSPTFHAPPLCI [GIT1]
median enrichment: 3.23

AEWPGTCLKCLFPISLRDQEGILGMPLTSLLSRQQKWRGSQESALNCPPGWQGSLNRYLELGSGLFPCVLTTRASCSRAGIRG [F11R]
median enrichment: 9.01

CRSWRTLGPRPAPIAGGR [MKNK2]
median enrichment: 8.08
